Data taken from patent US20240270846A1 (published 2024).
Numbering of substitutions follows the chain as printed.

T1: cynomolgus monkey CD137 (cynomolgus monkey, UniProt Q07011 24-186 (human entry), limits assumed)
T1 construct: Soluble analyte in the Biacore assay; also called cyno CD137
T1 chain: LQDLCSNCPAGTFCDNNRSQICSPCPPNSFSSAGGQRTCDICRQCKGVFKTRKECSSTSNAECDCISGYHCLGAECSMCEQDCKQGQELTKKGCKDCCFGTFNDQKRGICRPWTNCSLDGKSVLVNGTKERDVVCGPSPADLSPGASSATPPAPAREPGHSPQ

B1: dBBDu139 (antibody, human IgG1, V domains shown)
VH: QVQLVESGGGLVQPGRSLRLSCAASGFTFSNAWMHWVRQAPGKGLEWVAQIKDRGNAYNAYYAESVKGRFTISRDDSKNSIYLQMNSLKTEDTAVYYCRFVHYRHPLLHIQYGVDAWGQGTTVTVSS
VL: DIVMTQSPLSLPVTPGEPASISCRSSQSLVHSNRNTYLHWYQQKPGQAPRLLIYKVSNRFSGVPDRFSGSGSGTDFTLKISRVEAEDVGVYYCGQGTQVPYTFGQGTKLEIK
notes: IgG: VH joined to human IgG1 CH1-Fc, GLS3000 as light chain
B2: dBBDu197 (antibody, human IgG1, V domains shown)
VH: QVQLVESGGGLVQPGRSLRLSCAASGFTFSNAWMHWVRQAPGKGLEWVAQIKDRSNAYAAYYAPSVKGRFTISRDDSKNSIYLQMNSLKTEDTAVYYCHYVHYASASTVLPAFGVDAWGQGTTVTVSS
VL: B1 VL
notes: as for B1
B3: dBBDu179 (antibody, human IgG1, V domains shown)
VH: B2 VH with A57Q, A60T
VL: B1 VL
notes: as for B1
B4: dBBDu193 (antibody, human IgG1, V domains shown)
VH: B2 VH with A57Q, A60T, A104S, S105A, V109L, A112S
VL: B1 VL
notes: as for B1
B5: dBBDu189 (antibody, human IgG1, V domains shown)
VH: B2 VH with V48I, A57Q, A60T, S105Q, T108S, V109L, A112S
VL: B1 VL
notes: as for B1
B6: dBBDu183 (antibody, human IgG1, V domains shown)
VH: B2 VH with R54K, S55G
VL: B1 VL
notes: as for B1
B7: dBBDu121 (antibody, human IgG1, V domains shown)
VH: B2 VH with R54K, S55G, S107A, T108G, V109G, A112G
VL: B1 VL
notes: IgG: VH joined to human IgG1 CH1-Fc, GLS3000 as light chain; also called DXDU01_3_#094; DXDU01_3 #094
B8: dBBDu123 (antibody, human IgG1, V domains shown)
VH: B2 VH with S55A, A57S, A59N, A104S, S105A, V109L, A112S
VL: B1 VL
notes: IgG: VH joined to human IgG1 CH1-Fc, GLS3000 as light chain; also called DADU01_3_#018; DADU01_3 #018
B9: dBBDu202 (antibody, human IgG1, V domains shown)
VH: B2 VH with R54K, S55G, A104S, S105A
VL: B1 VL
notes: as for B1
B10: dBBDu122 (antibody, human IgG1, V domains shown)
VH: B2 VH with N56Q, A57L, P111G, F113Y
VL: B1 VL
notes: IgG: VH joined to human IgG1 CH1-Fc, GLS3000 as light chain; also called DXDU01_3_#072; DXDU01_3 #072
B11: dBBDu124 (antibody, human IgG1, V domains shown)
VH: B2 VH with R54K, S55Q, A57L, A59N, P64E
VL: B1 VL
notes: IgG: VH joined to human IgG1 CH1-Fc, GLS3000 as light chain; also called DADU01_3_#002; DADU01_3 #002
B12: dBBDu196 (antibody, human IgG1, V domains shown)
VH: B2 VH with S55G, A59N, P64E
VL: B1 VL
notes: as for B1
B13: dBBDu127 (antibody, human IgG1, V domains shown)
VH: B2 VH with S55G, N56Q, A57Q, A59N, T108S, A112G, F113Y
VL: B1 VL
notes: IgG: VH joined to human IgG1 CH1-Fc, GLS3000 as light chain; also called DXDU01_3_#051; DXDU01_3 #051
B14: dBBDu167 (antibody, human IgG1, V domains shown)
VH: B2 VH with R54K, S55G, A57L, S107G, T108G, V109G, A112G
VL: B1 VL
notes: as for B1
B15: dBBDu199 (antibody, human IgG1, V domains shown)
VH: B2 VH with R54K, S55Q, N56S, A57G, A59N, A60T
VL: B1 VL
notes: as for B1
B16: dBBDu173 (antibody, human IgG1, V domains shown)
VH: B2 VH with R54K, S55G, A57L, S107G, T108G, V109G, P111S, F113Y
VL: B1 VL
notes: as for B1
B17: dBBDu126 (antibody, human IgG1, V domains shown)
VH: QVQLVESGGGLVQPGRSLRLSCAASGFTFSIAWMHWVRQAPGKGLEWVAQIKDRVNAYEAYYAPSVKGRFTISRDDSKNSIYLQMNSLKTEDTAVYYCRYVHYASYYDLLGYGGVDAWGQGTTVTVSS
VL: B1 VL
notes: IgG: VH joined to human IgG1 CH1-Fc, GLS3000 as light chain; also called DADU01_3_#001; DADU01_3 #001
B18: dBBDu186 (antibody, human IgG1, V domains shown)
VH: B2 VH with A57Q, A60T, S105Q
VL: B1 VL
notes: as for B1
B19: dBBDu_189 / dBBDu_L126 (antibody, human IgG1, V domains shown)
VH: B2 VH with V48I, A57Q, A60T, S105Q, T108S, V109L, A112S
VL: DIVMTQSPLSLPVTPGEPASISCRTSEELLHINRYIFLHWYQQKPGQAPRLLIYKVQNRFSGVPDRFSGSGSGTDFTLKISRVEAEDVGVYYCAQGSAVPFTFGQGTKLEIK
notes: Tested as IgG (human IgG1 constant region, kappa light chain); also called dBBDu189/L126
B20: dBBDu_167 / dBBDu.L094 (antibody, human IgG1, V domains shown)
VH: B2 VH with R54K, S55G, A57L, S107G, T108G, V109G, A112G
VL: B19 VL with R24Y, T25A, Y35H, F37Y, Q57Y, S61N, A98S
notes: Tested as IgG (human IgG1 constant region, kappa light chain); also called dBBDu167/L094; dBBDu_167/L094
B21: dBBDu_193 / dBBDu.L132 (antibody, human IgG1, V domains shown)
VH: B2 VH with A57Q, A60T, A104S, S105A, V109L, A112S
VL: B19 VL with R24Q, L30V, Y35F, Q57S, S97T, A98S
notes: Tested as IgG (human IgG1 constant region, kappa light chain); also called dBBDu193/L132; dBBDu_193/L132
B22: dBBDu_193 / dBBDu.L127 (antibody, human IgG1, V domains shown)
VH: B2 VH with A57Q, A60T, A104S, S105A, V109L, A112S
VL: B19 VL with T25A, Y35H, Q57Y, S61T, S97T, A98S
notes: Tested as IgG (human IgG1 constant region, kappa light chain); also called dBBDu193/L127; dBBDu_193/L127

Tests used:
[1] = target: T2, biotin-labeled human CD137 fused to human IgG1 Fc fragment (human, biotin-labeled); test: competitive bead ELISA, IgG on biotin-human CD137-Fc, competitor free CD3 epsilon peptide 125 pmol/well
T2 construct: Immobilised on streptavidin beads through biotin; also called human CD137-Fc; biotin-human CD137-Fc

[2] = target: T2, biotin-labeled human CD137 fused to …; test: competitive bead ELISA, decrease of signal on biotin-human CD137-Fc with 125 pmol/well free CD3 epsilon peptide against 0
[3] = target: T2, biotin-labeled human CD137 fused to …; test: bead ELISA, IgG on biotin-human CD137-Fc on streptavidin beads, no free CD3e
human CD137 = target: T3, human CD137 (human, UniProt Q07011 24-186); test: SPR Biacore T200, IgG captured on protein A, antigen as analyte, 25 C;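 further: antigens flowed over a CM3 chip for 120 s association, KD derived from ka and kd, running buffer (ACES, NaCl, Tween20, pH 7.4) served as blank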
T3 construct: Soluble analyte in the Biacore assay; also called 4-1BB; hCD137

human CD3ed = target: T4, human CD3ed (human, UniProt P07766 23-126; P04234 22-105, limits assumed); test: as above
T4 construct: The construct injected as 'human CD3ed' in the Biacore assay is not defined; also called human CD3 epsilon/delta heterodimer

cynomolgus monkey CD137 = target: T1, cynomolgus monkey CD137; test: as above
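Wherever ELISA signal, free CD3e 125 pmol/well is given: bead ELISA on streptavidin-coated magnetic beads, with the signal read as well fluorescence 2 min after APS-5 addition.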

Binder	ELISA signal, free CD3e 125 pmol/well [1]	Signal decrease [2]	ELISA signal, free CD3e 0 pmol/well [3]	further results
B1	1920	79.6%	9440	–
B2	2110	96.1%	54400	–
B3	2620	95.7%	61000	–
B4	2280	87.5%	18200	–
B5	2190	92%	27400	–
B6	2370	93%	34000	–
B7	1830	49.4%	3610	–
B8	1840	33%	2750	–
B9	1930	84%	12100	–
B10	1880	30.2%	2700	–
B11	2120	68%	6620	–
B12	2220	93.3%	33100	–
B13	2200	32%	3230	–
B14	1940	92.5%	25700	–
B15	2370	94.2%	40900	–
B16	2040	68.8%	6540	–
B17	2610	97.8%	116000	–
B18	2500	92.8%	34800	–
B19	–	–	–	Kd (human CD137): 0.513 µM; koff (human CD137): 0.000688 s⁻¹; kon (human CD137): 1340 M⁻¹ s⁻¹; Kd (human CD3ed): 2.57 µM; koff (human CD3ed): 0.0281 s⁻¹; kon (human CD3ed): 10900 M⁻¹ s⁻¹; Kd (cynomolgus monkey CD137): 3.06 µM; koff (cynomolgus monkey CD137): 0.00247 s⁻¹; kon (cynomolgus monkey CD137): 807 M⁻¹ s⁻¹
B20	–	–	–	Kd (human CD137): 8.43 µM; koff (human CD137): 0.0102 s⁻¹; kon (human CD137): 1210 M⁻¹ s⁻¹; Kd (human CD3ed): 0.349 µM; koff (human CD3ed): 0.021 s⁻¹; kon (human CD3ed): 60200 M⁻¹ s⁻¹; Kd (cynomolgus monkey CD137): 6.92 µM; koff (cynomolgus monkey CD137): 0.0748 s⁻¹; kon (cynomolgus monkey CD137): 10800 M⁻¹ s⁻¹
B21	–	–	–	Kd (human CD137): 4.48 µM; koff (human CD137): 0.00211 s⁻¹; kon (human CD137): 471 M⁻¹ s⁻¹; Kd (human CD3ed): 2.03 µM; koff (human CD3ed): 0.0201 s⁻¹; kon (human CD3ed): 9890 M⁻¹ s⁻¹; Kd (cynomolgus monkey CD137): 757 µM; koff (cynomolgus monkey CD137): 0.0061 s⁻¹
B22	–	–	–	Kd (human CD137): 3.3 µM; koff (human CD137): 0.00145 s⁻¹; kon (human CD137): 440 M⁻¹ s⁻¹; Kd (human CD3ed): 1.51 µM; koff (human CD3ed): 0.0191 s⁻¹; kon (human CD3ed): 12600 M⁻¹ s⁻¹; Kd (cynomolgus monkey CD137): 28.1 µM; koff (cynomolgus monkey CD137): 0.00316 s⁻¹; kon (cynomolgus monkey CD137): 112 M⁻¹ s⁻¹
